The record followed here is patent publication US20140123330.

In this data set the test system is btGDF83.1 TALEN pair (synthetic (TALE-FokI)). The data set is described as follows: cell_activity. The settings on record: SURVEYOR; bovine fibroblasts; active at 30 and 37 C; pair called btGDF8.1 and btGDF83.1.

Substance bovine GDF8 exon 3 target came in with an activity (% chromosomes cleaved) of less than 16.
